# US20050256044A1
# Key:
# [1] = target: human wild type, full-length GIPF polypeptide (GIPFwt) (human) (UniProt Q2MKA7); test: cell-based or functional assay
# [2] = target: V5His6-tagged polypeptide of human GIPF (GIPFt) (human); test: cell-based or functional assay
# Chain of V5His6-tagged polypeptide of human GIPF (GIPFt) (human) (chain, as listed by the source limits assumed): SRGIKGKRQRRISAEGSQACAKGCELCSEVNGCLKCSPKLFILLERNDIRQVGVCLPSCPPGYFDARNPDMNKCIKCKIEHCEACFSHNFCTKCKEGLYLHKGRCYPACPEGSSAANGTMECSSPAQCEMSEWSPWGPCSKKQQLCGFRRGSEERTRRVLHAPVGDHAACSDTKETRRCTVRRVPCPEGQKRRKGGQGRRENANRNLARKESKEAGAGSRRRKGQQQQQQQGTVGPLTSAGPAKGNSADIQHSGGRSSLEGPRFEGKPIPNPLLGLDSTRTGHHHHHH
# Chain of UniProt Q2MKA7 (Q2MKA7 21-263 limits assumed): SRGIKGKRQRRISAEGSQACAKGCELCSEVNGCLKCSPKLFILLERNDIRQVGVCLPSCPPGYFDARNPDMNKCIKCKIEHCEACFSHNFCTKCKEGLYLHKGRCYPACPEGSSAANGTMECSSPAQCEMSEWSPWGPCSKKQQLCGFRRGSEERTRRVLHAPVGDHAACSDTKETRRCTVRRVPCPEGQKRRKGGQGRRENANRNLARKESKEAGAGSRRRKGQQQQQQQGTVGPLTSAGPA
substance,measurement,setting,value
furin protease (from UniProt P09958 108-794) (enzyme),N-terminal sequence analysis of protein from HEK293 cells; ratio of mature to dominant mature forms (ratio mature:dominant mature),[1],0.5
same,N-terminal sequence analysis of protein from HEK293 cells; ratio of mature to dominant mature forms (ratio mature:dominant mature),[2],0.5
